Data published in patent US20210253724A1.

B1: P1AE3108 (antibody, IgG1, V domains shown)
VH: QVQLVQSGAEVKKPGSSVKVSCKASGFNIKDSYMHWVRQAPGQGLEWMGWIDPENGDTEYAPKFQGRVTITTDESTSTAYMELSSLRSEDTAVYYCNEGTPTGPYYFDYWGQGTLVTVSS
VL: EIQMTQSPSSLSASVGDRVTITCRASQSISSYMHWYQQKPGKAPKLLIYSTSNLASGVPSRFSGSGSGTDFTLTISSLQPEDFATYYCQQRSSYPLTFGGGTKLEIK
B2: P1AE4135 Fab derived from P1AE2164 (Fab, V domains shown)
VH: EVQLLESGGGLVQPGGSLRLSCAASGFTFTDYYMNWVRQAPGKGLEWLGFIGNKANGYTTEYSASVKGRFTISRDKSKNTLYLQMNSLRAEDTATYYCTRDRGLRFYFDYWGQGTTVTVSS
VL: QTVLTQSPATLSLSPGERATLSCRASSSVTYIHWYQQKPGSSPKSWIYATSNLASGIPARFSGSGSGTDYTLTISSLEPEDFAVYYCQHWSSKPPTFGQGTKLEIK
B3: P1AE4142 Fab derived from P1AE2181 (Fab, V domains shown)
VH: EVQLLESGGGLVQPGGSLRLSCAASGFTFTDYYMNWVRQAPGKGLEWVGFIGNKANGYTTEYSASVKGRFTISRDKSKNTLYLQMNSLRAEDTAVYYCARDRGLRFYFDYWGQGTTVTVSS
VL: EIVLTQSPATLSLSPGERATLSCRASSSVTYIHWYQQKPGSSPKSWIYATSNLASGIPARFSGSGSGTDFTLTISSLEPEDFAVYYCQHWSSKPPTFGQGTKLEIK
B4: P1AE4136 Fab derived from P1AE2165 (Fab, V domains shown)
VH: EVQLLESGGGLVQPGGSLRLSCAASGFTFTDYYMNWVRQAPGKGLEWLGFIGNKANGYTTEYSASVKGRFTISRDKSKNTLYLQMNSLRAEDTATYYCTRDRGLRFYFDYWGQGTTVTVSS
VL: QTVLTQSPATLSLSPGERATLSCRASSSVTYIHWYQQKPGQAPRLLIYATSNLASGIPARFSGSGSGTDFTLTISSLEPEDFAVYYCQHWSSKPPTFGQGTKLEIK
B5: P1AE4137 Fab derived from P1AE2166 (Fab, V domains shown)
VH: EVQLLESGGGLVQPGGSLRLSCAASGFTFTDYYMNWVRQAPGKGLEWLGFIGNKANGYTTEYSASVKGRFTISRDKSKNTLYLQMNSLRAEDTATYYCTRDRGLRFYFDYWGQGTTVTVSS
VL: EIVLTQSPATLSLSPGERATLSCRASSSVTYIHWYQQKPGSSPKSWIYATSNLASGIPARFSGSGSGTDFTLTISSLEPEDFAVYYCQHWSSKPPTFGQGTKLEIK
B6: P1AE4139 Fab derived from P1AE2176 (Fab, V domains shown)
VH: EVQLLESGGGLVQPGGSLRLSCAASGFTFTDYYMNWVRQAPGKGLEWVGFIGNKANGYTTEYSASVKGRFTISRDNSKNTLYLQMNSLRAEDTAVYYCTRDRGLRFYFDYWGQGTTVTVSS
VL: EIVLTQSPATLSLSPGERATLSCRASSSVTYIHWYQQKPGSSPKSWIYATSNLASGIPARFSGSGSGTDFTLTISSLEPEDFAVYYCQHWSSKPPTFGQGTKLEIK
B7: P1AE4141 Fab derived from P1AE2179 (Fab, V domains shown)
VH: EVQLLESGGGLVQPGGSLRLSCAASGFTFTDYYMNWVRQAPGKGLEWVGFIGNKANGYTTEYSASVKGRFTISRDKSKNTLYLQMNSLRAEDTAVYYCARDRGLRFYFDYWGQGTTVTVSS
VL: QTVLTQSPATLSLSPGERATLSCRASSSVTYIHWYQQKPGSSPKSWIYATSNLASGIPARFSGSGSGTDYTLTISSLEPEDFAVYYCQHWSSKPPTFGQGTKLEIK
B8: P1AE4138 Fab derived from P1AE2167 (Fab, V domains shown)
VH: EVQLLESGGGLVQPGGSLRLSCAASGFTFTDYYMNWVRQAPGKGLEWLGFIGNKANGYTTEYSASVKGRFTISRDKSKNTLYLQMNSLRAEDTATYYCTRDRGLRFYFDYWGQGTTVTVSS
VL: EIVLTQSPATLSLSPGERATLSCRASSSVTYIHWYQQKPGQAPRSWIYATSNLASGIPARFSGSGSGTDFTLTISSLEPEDFAVYYCQHWSSKPPTFGQGTKLEIK
B9: P1AE4140 Fab derived from P1AE2177 (Fab, V domains shown)
VH: EVQLLESGGGLVQPGGSLRLSCAASGFTFTDYYMNWVRQAPGKGLEWVGFIGNKANGYTTEYSASVKGRFTISRDNSKNTLYLQMNSLRAEDTAVYYCTRDRGLRFYFDYWGQGTTVTVSS
VL: EIVLTQSPATLSLSPGERATLSCRASSSVTYIHWYQQKPGQAPRSWIYATSNLASGIPARFSGSGSGTDFTLTISSLEPEDFAVYYCQHWSSKPPTFGQGTKLEIK
B10: P1AE4143 Fab derived from P1AE2182 (Fab, V domains shown)
VH: EVQLLESGGGLVQPGGSLRLSCAASGFTFTDYYMNWVRQAPGKGLEWVGFIGNKANGYTTEYSASVKGRFTISRDKSKNTLYLQMNSLRAEDTAVYYCARDRGLRFYFDYWGQGTTVTVSS
VL: EIVLTQSPATLSLSPGERATLSCRASSSVTYIHWYQQKPGQAPRSWIYATSNLASGIPARFSGSGSGTDFTLTISSLEPEDFAVYYCQHWSSKPPTFGQGTKLEIK
B11: P1AE0289 CEA (A5B7) Fab (parental murine antibody) (Fab, V domains shown)
VH: EVKLVESGGGLVQPGGSLRLSCATSGFTFTDYYMNWVRQPPGKALEWLGFIGNKANGYTTEYSASVKGRFTISRDKSQSILYLQMNTLRAEDSATYYCTRDRGLRFYFDYWGQGTTLTVSS
VL: QTVLSQSPAILSASPGEKVTMTCRASSSVTYIHWYQQKPGSSPKSWIYATSNLASGVPARFSGSGSGTSYSLTISRVEAEDAATYYCQHWSSKPPTFGGGTKLEIK

Target: human CEACAM5 (CEA) on cells (human) (UniProt P06731)
Sequence (P06731 35-685 E398K limits assumed): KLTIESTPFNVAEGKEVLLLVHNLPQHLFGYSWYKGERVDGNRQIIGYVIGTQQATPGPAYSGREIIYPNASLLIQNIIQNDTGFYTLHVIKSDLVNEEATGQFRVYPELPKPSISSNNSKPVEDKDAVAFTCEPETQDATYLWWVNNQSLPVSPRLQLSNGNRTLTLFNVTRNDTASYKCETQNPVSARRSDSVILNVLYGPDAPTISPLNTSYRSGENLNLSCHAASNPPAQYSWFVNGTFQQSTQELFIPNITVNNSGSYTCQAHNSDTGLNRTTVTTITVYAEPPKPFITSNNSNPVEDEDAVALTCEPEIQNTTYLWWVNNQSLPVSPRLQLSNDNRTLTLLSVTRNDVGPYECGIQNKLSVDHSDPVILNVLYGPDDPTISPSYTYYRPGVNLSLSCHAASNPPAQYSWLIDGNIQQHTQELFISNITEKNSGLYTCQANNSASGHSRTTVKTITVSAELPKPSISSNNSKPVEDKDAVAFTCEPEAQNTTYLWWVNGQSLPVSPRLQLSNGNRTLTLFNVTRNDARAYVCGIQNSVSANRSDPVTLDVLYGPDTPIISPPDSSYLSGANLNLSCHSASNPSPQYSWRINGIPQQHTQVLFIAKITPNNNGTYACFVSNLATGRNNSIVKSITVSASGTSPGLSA
Assay: flow cytometry on MKN45 cells
Parameters: unit not given beside the values

For B1, the AUC was 2090.

Target: hu N(A2-B2)A-avi-His B (human)
Sequence (P06731 whole entry): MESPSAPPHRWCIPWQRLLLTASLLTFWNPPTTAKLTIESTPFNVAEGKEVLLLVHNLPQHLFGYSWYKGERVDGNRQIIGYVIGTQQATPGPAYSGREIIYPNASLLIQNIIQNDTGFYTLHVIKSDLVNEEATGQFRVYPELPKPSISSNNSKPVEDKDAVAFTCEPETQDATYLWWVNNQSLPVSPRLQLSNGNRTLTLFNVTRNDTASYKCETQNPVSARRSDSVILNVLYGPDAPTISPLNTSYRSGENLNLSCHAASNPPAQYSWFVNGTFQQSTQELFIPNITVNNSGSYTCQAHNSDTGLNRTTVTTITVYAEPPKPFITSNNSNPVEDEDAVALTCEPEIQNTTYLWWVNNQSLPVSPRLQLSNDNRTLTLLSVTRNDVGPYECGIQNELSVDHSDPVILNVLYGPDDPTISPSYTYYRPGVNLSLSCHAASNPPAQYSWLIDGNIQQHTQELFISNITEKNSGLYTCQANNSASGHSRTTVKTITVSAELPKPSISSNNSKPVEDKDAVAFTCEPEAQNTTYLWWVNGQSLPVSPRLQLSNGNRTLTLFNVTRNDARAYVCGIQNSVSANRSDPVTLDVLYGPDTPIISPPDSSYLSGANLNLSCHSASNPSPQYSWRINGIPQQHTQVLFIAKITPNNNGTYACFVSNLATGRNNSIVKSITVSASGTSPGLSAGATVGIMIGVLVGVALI
Assay: SPR (Biacore T200), CEA construct immobilised, Fab as analyte, 1:1 Langmuir fit

Point of comparison: B9, Kd 7.62 nM. Against it:
- B2 — 4.5-fold lower, 1.7 nM
- B3 — 2.9-fold lower, 2.64 nM
- B4 — 6.1-fold lower, 1.25 nM
- B5 — within 1.5-fold, 11.3 nM
- B6 — within 1.5-fold, 7.58 nM
- B7 — 4.2-fold lower, 1.83 nM
- B8 — 5.2-fold lower, 1.47 nM
- B10 — 2.6-fold lower, 2.92 nM
- B11 — 14-fold lower, 0.559 nM
